Test results reported in US20240317859A1 (published 2024).

T1: FcγRIIB/C (CD32b/c) (FcγRIIB) (R&D Systems) (UniProt P31994 46-217)
T1 chain: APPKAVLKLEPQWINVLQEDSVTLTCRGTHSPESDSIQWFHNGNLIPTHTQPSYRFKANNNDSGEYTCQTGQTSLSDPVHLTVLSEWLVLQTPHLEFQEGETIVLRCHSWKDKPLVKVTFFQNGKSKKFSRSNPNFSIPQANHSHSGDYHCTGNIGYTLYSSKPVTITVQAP


Columns and labels:
[1] = target: T1, FcγRIIB/C (CD32b/c) (FcγRIIB) (R&D …); assay: SPR
[2] = target: Fc gamma RIIIA/CD16a, CF (FcγRIIIA(V158)) (R&D Systems); assay: SPR
Chain of Fc gamma RIIIA/CD16a, CF (FcγRIIIA(V158)) (R&D Systems) (chain, as listed by the source): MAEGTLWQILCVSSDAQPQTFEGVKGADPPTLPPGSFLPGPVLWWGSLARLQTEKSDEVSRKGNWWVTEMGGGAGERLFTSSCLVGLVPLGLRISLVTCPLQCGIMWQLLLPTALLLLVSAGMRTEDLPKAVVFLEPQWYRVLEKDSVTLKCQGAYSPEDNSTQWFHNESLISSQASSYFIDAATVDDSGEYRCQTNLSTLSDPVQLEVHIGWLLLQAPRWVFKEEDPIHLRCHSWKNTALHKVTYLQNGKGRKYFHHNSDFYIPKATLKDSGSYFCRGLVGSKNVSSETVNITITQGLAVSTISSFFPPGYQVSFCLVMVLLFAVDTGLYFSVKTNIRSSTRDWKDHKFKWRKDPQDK

Binder	Kd [1] [µM]	Kd [2] [µM]
X2-K HM297-H5 (antibody) chain 1: QVQLVQSGPEVKKPGASVKIPCKASGYTFTDYNVDWVRQVPGQGLEWMGDIDPNNGGTIYNQKFKDRVTMTVDKSTRTAYMELRSLRSDDTAVYYCARWRGAMDYWGQGTLVTVSSASTKGPSVFPLAPSSKSTSGGTAALGCLVKDYFPEPVTVSWNSGALTSGVHTFPAVLQSSGLYSLSSVVTVPSSSLGTQTYICNVNHKPSNTKVDKKVEPKSCDKTHTCPPCPAPELLDGPSVFLFPPKPKDTLMISRTPEVTCVVVDVSDEDPEVKFNWYVDGVEVHNAKTKPREEQYNSTYRVVSVLTVLHQDWLNGKEYKCAVSNKALPAPIEKTISKAKGQPREPQVYTLPPSRDELTKNQVSLTCLVKGFYPSDIAVEWESNGQPENNYKTTPPVLDSDGSFFLYSKLTVDKSRWQQGNVFSCSVMHEALHNHYTQKSLSLSPGK chain 2: DIQMTQSPSSLSASVGDRVTITCRASQDIDNYLKWYQQKPDGTVKLLIYDTSRLHSGVPSRFSGSGSGTDYTLTISSLKQEDFATYYCQQGYTLPWTFGQGTKLEIKRTVAAPSVFIFPPSDEQLKSGTASVVCLLNNFYPREAKVQWKVDNALQSGNSQESVTEQDSKDSTYSLSSTLTLSKADYEKHKVYACEVTHQGLSSPVTKSFNRGEC	1.29	5.22
X3-KS HM297-H5 (antibody) chain 1: QVQLVQSGPEVKKPGASVKIPCKASGYTFTDYNVDWVRQVPGQGLEWMGDIDPNNGGTIYNQKFKDRVTMTVDKSTRTAYMELRSLRSDDTAVYYCARWRGAMDYWGQGTLVTVSSASTKGPSVFPLAPSSKSTSGGTAALGCLVKDYFPEPVTVSWNSGALTSGVHTFPAVLQSSGLYSLSSVVTVPSSSLGTQTYICNVNHKPSNTKVDKKVEPKSCDKTHTCPPCPAPELLGGPDVFLFPPKPKDTLMISRTPEVTCVVVDVGDEDPEVKFNWYVDGVEVHNAKTKPREEQYNSTYRVVSVLTVLHQDWLNGKEYKCAVSNKALPAPIEKTISKAKGQPREPQVYTLPPSRDELTKNQVSLTCLVKGFYPSDIAVEWESNGQPENNYKTTPPVLDSDGSFFLYSKLTVDKSRWQQGNVFSCSVMHEALHNHYTQKSLSLSPGK chain 2: DIQMTQSPSSLSASVGDRVTITCRASQDIDNYLKWYQQKPDGTVKLLIYDTSRLHSGVPSRFSGSGSGTDYTLTISSLKQEDFATYYCQQGYTLPWTFGQGTKLEIKRTVAAPSVFIFPPSDEQLKSGTASVVCLLNNFYPREAKVQWKVDNALQSGNSQESVTEQDSKDSTYSLSSTLTLSKADYEKHKVYACEVTHQGLSSPVTKSFNRGEC	1.43	
X3-KS HM268-K8 (antibody) chain 1: QVQLVQSGPEVKKPGASVKVVCKTSGYTFTSYYIQWLKQRPGQGLEWIGWIYFGDASTKYNEKFKGRVTMTADKSTSTAYMELRSLRSDDTAVYYCASYYGSYFDYWGQGTTVTVSSASTKGPSVFPLAPSSKSTSGGTAALGCLVKDYFPEPVTVSWNSGALTSGVHTFPAVLQSSGLYSLSSVVTVPSSSLGTQTYICNVNHKPSNTKVDKKVEPKSCDKTHTCPPCPAPELLGGPDVFLFPPKPKDTLMISRTPEVTCVVVDVGDEDPEVKFNWYVDGVEVHNAKTKPREEQYNSTYRVVSVLTVLHQDWLNGKEYKCAVSNKALPAPIEKTISKAKGQPREPQVYTLPPSRDELTKNQVSLTCLVKGFYPSDIAVEWESNGQPENNYKTTPPVLDSDGSFFLYSKLTVDKSRWQQGNVFSCSVMHEALHNHYTQKSLSLSPGK chain 2: DIQMTQSPSSLSASVGDRVTITCRASQDISNYLNWYQQKPDGTVKLLIYSTSRLHSGVPSRFSGSGSGTDYTLTISSLQPEDFATYYCQQGSTLPFTFGQGTKLEIKRTVAAPSVFIFPPSDEQLKSGTASVVCLLNNFYPREAKVQWKVDNALQSGNSQESVTEQDSKDSTYSLSSTLTLSKADYEKHKVYACEVTHQGLSSPVTKSFNRGEC	2.54	
X2-K HM242-D3 (antibody) chain 1: QVQLVQSGPEVKKPGASVKVVCKASGYTFTSYYIQWVRQVPGQGLEWMGWIYPGDGTTKYNEKFKGRVTMTIDTSTSTAYMELRSLRSDDTAVYYCASYYGSYFDYWGQGTLVTVSSASTKGPSVFPLAPSSKSTSGGTAALGCLVKDYFPEPVTVSWNSGALTSGVHTFPAVLQSSGLYSLSSVVTVPSSSLGTQTYICNVNHKPSNTKVDKKVEPKSCDKTHTCPPCPAPELLDGPSVFLFPPKPKDTLMISRTPEVTCVVVDVSDEDPEVKFNWYVDGVEVHNAKTKPREEQYNSTYRVVSVLTVLHQDWLNGKEYKCAVSNKALPAPIEKTISKAKGQPREPQVYTLPPSRDELTKNQVSLTCLVKGFYPSDIAVEWESNGQPENNYKTTPPVLDSDGSFFLYSKLTVDKSRWQQGNVFSCSVMHEALHNHYTQKSLSLSPGK chain 2: not shown	1.25	4.27
X3-KS HM242-D3 (antibody) chain 1: QVQLVQSGPEVKKPGASVKVVCKASGYTFTSYYIQWVRQVPGQGLEWMGWIYPGDGTTKYNEKFKGRVTMTIDTSTSTAYMELRSLRSDDTAVYYCASYYGSYFDYWGQGTLVTVSSASTKGPSVFPLAPSSKSTSGGTAALGCLVKDYFPEPVTVSWNSGALTSGVHTFPAVLQSSGLYSLSSVVTVPSSSLGTQTYICNVNHKPSNTKVDKKVEPKSCDKTHTCPPCPAPELLGGPDVFLFPPKPKDTLMISRTPEVTCVVVDVGDEDPEVKFNWYVDGVEVHNAKTKPREEQYNSTYRVVSVLTVLHQDWLNGKEYKCAVSNKALPAPIEKTISKAKGQPREPQVYTLPPSRDELTKNQVSLTCLVKGFYPSDIAVEWESNGQPENNYKTTPPVLDSDGSFFLYSKLTVDKSRWQQGNVFSCSVMHEALHNHYTQKSLSLSPGK chain 2: not shown	2.74	
X3-KS HM242-C3 (antibody) chain 1: QVQLVQSGPEVKKPGASVKVVCKASGYTFTSYYIQWVKQRPGQGLEWIGWIYPGDGTTKYNEKFKGRVTMTIDKSTRTAYMELRSLRSDDTAVYYCASYYGSYFDYWGQGTLVTVSSASTKGPSVFPLAPSSKSTSGGTAALGCLVKDYFPEPVTVSWNSGALTSGVHTFPAVLQSSGLYSLSSVVTVPSSSLGTQTYICNVNHKPSNTKVDKKVEPKSCDKTHTCPPCPAPELLGGPDVFLFPPKPKDTLMISRTPEVTCVVVDVGDEDPEVKFNWYVDGVEVHNAKTKPREEQYNSTYRVVSVLTVLHQDWLNGKEYKCAVSNKALPAPIEKTISKAKGQPREPQVYTLPPSRDELTKNQVSLTCLVKGFYPSDIAVEWESNGQPENNYKTTPPVLDSDGSFFLYSKLTVDKSRWQQGNVFSCSVMHEALHNHYTQKSLSLSPGK chain 2: not shown	1.66	

The next lines start with the values.

Kd [1] [µM]	Kd [2] [µM]	Binder
1.25	3.03	X4-K HM297-H5 (antibody) chain 1: QVQLVQSGPEVKKPGASVKIPCKASGYTFTDYNVDWVRQVPGQGLEWMGDIDPNNGGTIYNQKFKDRVTMTVDKSTRTAYMELRSLRSDDTAVYYCARWRGAMDYWGQGTLVTVSSASTKGPSVFPLAPSSKSTSGGTAALGCLVKDYFPEPVTVSWNSGALTSGVHTFPAVLQSSGLYSLSSVVTVPSSSLGTQTYICNVNHKPSNTKVDKKVEPKSCDKTHTCPPCPAPELLGGPDVFLFPPKPKDTLMISRTPEVTCVVVDVSDEDPEVKFNWYVDGVEVHNAKTKPREEQYNSTYRVVSVLTVLHQDWLNGKEYKCAVSNKAYPAPEEKTISKAKGQPREPQVYTLPPSRDELTKNQVSLTCLVKGFYPSDIAVEWESNGQPENNYKTTPPVLDSDGSFFLYSKLTVDKSRWQQGNVFSCSVMHEALHNHYTQKSLSLSPGK chain 2: DIQMTQSPSSLSASVGDRVTITCRASQDIDNYLKWYQQKPDGTVKLLIYDTSRLHSGVPSRFSGSGSGTDYTLTISSLKQEDFATYYCQQGYTLPWTFGQGTKLEIKRTVAAPSVFIFPPSDEQLKSGTASVVCLLNNFYPREAKVQWKVDNALQSGNSQESVTEQDSKDSTYSLSSTLTLSKADYEKHKVYACEVTHQGLSSPVTKSFNRGEC
0.957	0.244	X4-K HM242-D3 (antibody) chain 1: QVQLVQSGPEVKKPGASVKVVCKASGYTFTSYYIQWVRQVPGQGLEWMGWIYPGDGTTKYNEKFKGRVTMTIDTSTSTAYMELRSLRSDDTAVYYCASYYGSYFDYWGQGTLVTVSSASTKGPSVFPLAPSSKSTSGGTAALGCLVKDYFPEPVTVSWNSGALTSGVHTFPAVLQSSGLYSLSSVVTVPSSSLGTQTYICNVNHKPSNTKVDKKVEPKSCDKTHTCPPCPAPELLGGPDVFLFPPKPKDTLMISRTPEVTCVVVDVSDEDPEVKFNWYVDGVEVHNAKTKPREEQYNSTYRVVSVLTVLHQDWLNGKEYKCAVSNKAYPAPEEKTISKAKGQPREPQVYTLPPSRDELTKNQVSLTCLVKGFYPSDIAVEWESNGQPENNYKTTPPVLDSDGSFFLYSKLTVDKSRWQQGNVFSCSVMHEALHNHYTQKSLSLSPGK chain 2: not shown
0.606	0.143	X4-K HM242-C3 (antibody) chain 1: QVQLVQSGPEVKKPGASVKVVCKASGYTFTSYYIQWVKQRPGQGLEWIGWIYPGDGTTKYNEKFKGRVTMTIDKSTRTAYMELRSLRSDDTAVYYCASYYGSYFDYWGQGTLVTVSSASTKGPSVFPLAPSSKSTSGGTAALGCLVKDYFPEPVTVSWNSGALTSGVHTFPAVLQSSGLYSLSSVVTVPSSSLGTQTYICNVNHKPSNTKVDKKVEPKSCDKTHTCPPCPAPELLGGPDVFLFPPKPKDTLMISRTPEVTCVVVDVSDEDPEVKFNWYVDGVEVHNAKTKPREEQYNSTYRVVSVLTVLHQDWLNGKEYKCAVSNKAYPAPEEKTISKAKGQPREPQVYTLPPSRDELTKNQVSLTCLVKGFYPSDIAVEWESNGQPENNYKTTPPVLDSDGSFFLYSKLTVDKSRWQQGNVFSCSVMHEALHNHYTQKSLSLSPGK chain 2: not shown
1.21		X2-K HM242-C3 (antibody) chain 1: QVQLVQSGPEVKKPGASVKVVCKASGYTFTSYYIQWVKQRPGQGLEWIGWIYPGDGTTKYNEKFKGRVTMTIDKSTRTAYMELRSLRSDDTAVYYCASYYGSYFDYWGQGTLVTVSSASTKGPSVFPLAPSSKSTSGGTAALGCLVKDYFPEPVTVSWNSGALTSGVHTFPAVLQSSGLYSLSSVVTVPSSSLGTQTYICNVNHKPSNTKVDKKVEPKSCDKTHTCPPCPAPELLDGPSVFLFPPKPKDTLMISRTPEVTCVVVDVSDEDPEVKFNWYVDGVEVHNAKTKPREEQYNSTYRVVSVLTVLHQDWLNGKEYKCAVSNKALPAPIEKTISKAKGQPREPQVYTLPPSRDELTKNQVSLTCLVKGFYPSDIAVEWESNGQPENNYKTTPPVLDSDGSFFLYSKLTVDKSRWQQGNVFSCSVMHEALHNHYTQKSLSLSPGK chain 2: not shown
